These results are taken from publication doi:10.1101/2025.03.06.641927, “Constitutively active RAS prolongs Cdc42 signalling while attenuating MAPK signalling during fission yeast mating” (bioRxiv, 2025).

For assay [1], the target named is T1, His6-Ras1.G17V (1-172), GTP-loaded (fission yeast (Schizosaccharomyces …, UniProt P08647 1-172, G17V)).
T1 construct: Loaded with GTP by EDTA-mediated exchange (8 mM GTP, 12 mM EDTA, 37 C, 10 min; stopped with 20.5 mM MgCl2) just before the pull-down; Cloned in vector pLEICS1; also called Ras1.G17V^GTP; source: E. coli BL21 Rosetta, purified (Ni Sepharose 6 Fast Flow), dialysed, loaded with GTP
T1 sequence (looked up): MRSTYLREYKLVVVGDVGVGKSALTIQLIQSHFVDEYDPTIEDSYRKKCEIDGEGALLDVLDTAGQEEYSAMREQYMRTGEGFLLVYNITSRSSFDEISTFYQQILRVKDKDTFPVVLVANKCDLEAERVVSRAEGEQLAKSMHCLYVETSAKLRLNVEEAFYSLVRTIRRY
The assay can be described thus: pull-down; GST fusion on glutathione sepharose beads incubated with GTP-loaded Ras1.G17V (1-172) in buffer A (20 mM Tris-Cl pH 7.5, 100 mM NaCl, 5 mM MgCl2, 1 mM beta-mercaptoethanol), 4 C, 30 min; bound fraction on SDS-PAGE, InstantBlue stain. The conditions noted are these: both partners purified.

Assay [2] has as its target T1, His6-Ras1.G17V (1-172), GTP-loaded. In words: pull-down; competition: GST-Byr2 (65-180) on glutathione beads incubated with GTP-loaded Ras1.G17V (1-172) with or without Scd1 (760-872) fragment, buffer A, 4 C, 30 min; Ras1.G17V band on SDS-PAGE quantified with Fiji. The settings on record: both partners purified.

B1: GST-Scd1 (760-872) (domain or fragment, UniProt P40995 760-872, looked up)
chain: SSSTSTSLSVRNTTNVKIRLRLHEVSLVLVVAHDITFDELLAKVEHKIKLCGILKQAVPFRVRLKYVDEDGDFITITSDEDVLMAFETCTFELMDPVHNKGMDTVSLHVVVYF
notes: Cloned in vector pLEICS4; also called GST-Scd1-PB1; Scd1-PB1; source: E. coli BL21 Rosetta, purified on glutathione sepharose 4B (kept on the beads); not shown: GST, N-terminal, kept
For the molecule B1, in assay [1], the binding result is listed as “binds”.

B2: Scd1 (760-872) fragment (domain or fragment, UniProt P40995 760-872, looked up)
chain: SSSTSTSLSVRNTTNVKIRLRLHEVSLVLVVAHDITFDELLAKVEHKIKLCGILKQAVPFRVRLKYVDEDGDFITITSDEDVLMAFETCTFELMDPVHNKGMDTVSLHVVVYF
notes: also called Scd1-PB1 (cleaved from GST); not shown: GST, N-terminal, cleaved
For B2, the binding result in assay [2] is reported as “binds”.

B3: GST-Byr2 (65-180) (domain or fragment, UniProt P28829 65-180, looked up)
chain: REFPRPCILRFIACNGQTRAVQSRGDYQKTLAIALKKFSLEDASKFIVCVSQSSRIKLITEEEFKQICFNSSSPERDRLIIVPKEKPCPSFEDLRRSWEIELAQPAALSSQSSLSP
notes: Cloned in vector pLEICS4; also called GST-Byr2-RBD; Byr2-RBD; source: E. coli BL21 Rosetta, purified on glutathione sepharose 4B (kept on the beads); not shown: GST, N-terminal, kept
Take B3: the binding result in assay [1] is given as “binds”.
